Three molecules from patent US20190062394A1 can be followed below.

For data set [1], the system named is Destabilized IL-12 #2.
The subject of data set [2] is Destabilized IL-12 #5.
Data set [3] has as its target Destabilized IL-12 #2. Briefly: cell-based or functional assay.
Data set [4] has as its target Destabilized IL-12 #5. The data set is described as follows: cell-based or functional assay.
For a further data set, the target named is T1, Destabilized IL-12 #11.
T1 chain: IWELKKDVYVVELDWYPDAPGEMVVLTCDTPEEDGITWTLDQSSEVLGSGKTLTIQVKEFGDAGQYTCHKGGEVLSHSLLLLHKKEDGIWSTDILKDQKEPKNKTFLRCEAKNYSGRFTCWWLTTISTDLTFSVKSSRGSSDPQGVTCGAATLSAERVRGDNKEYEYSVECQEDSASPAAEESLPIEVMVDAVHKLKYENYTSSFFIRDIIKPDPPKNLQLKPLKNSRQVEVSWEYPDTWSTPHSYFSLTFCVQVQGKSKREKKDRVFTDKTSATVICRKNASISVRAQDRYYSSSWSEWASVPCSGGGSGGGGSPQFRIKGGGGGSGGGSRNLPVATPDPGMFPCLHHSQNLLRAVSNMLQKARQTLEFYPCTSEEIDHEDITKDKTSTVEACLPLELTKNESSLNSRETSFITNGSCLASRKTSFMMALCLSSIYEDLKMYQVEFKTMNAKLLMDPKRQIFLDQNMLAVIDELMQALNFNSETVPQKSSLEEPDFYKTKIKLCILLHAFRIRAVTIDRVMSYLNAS

In another data set the target is T2, Destabilized IL-12 #12.
T2 chain: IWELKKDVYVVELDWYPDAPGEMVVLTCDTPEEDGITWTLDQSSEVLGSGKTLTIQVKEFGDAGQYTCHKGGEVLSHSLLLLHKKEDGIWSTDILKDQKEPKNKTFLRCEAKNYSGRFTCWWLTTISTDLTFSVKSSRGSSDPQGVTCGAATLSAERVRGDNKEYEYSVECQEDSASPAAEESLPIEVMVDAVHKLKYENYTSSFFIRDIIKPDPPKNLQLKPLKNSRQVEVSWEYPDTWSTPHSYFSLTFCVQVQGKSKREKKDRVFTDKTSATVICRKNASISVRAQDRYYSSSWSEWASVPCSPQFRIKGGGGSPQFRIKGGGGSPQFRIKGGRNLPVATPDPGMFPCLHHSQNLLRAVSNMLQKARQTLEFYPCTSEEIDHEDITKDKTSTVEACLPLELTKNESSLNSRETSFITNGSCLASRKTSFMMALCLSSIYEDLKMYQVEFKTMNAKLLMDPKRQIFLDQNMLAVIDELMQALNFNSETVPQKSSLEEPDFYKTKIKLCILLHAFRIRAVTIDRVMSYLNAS

A further data set concerns the target T3, Destabilized IL-12 #18.
T3 chain: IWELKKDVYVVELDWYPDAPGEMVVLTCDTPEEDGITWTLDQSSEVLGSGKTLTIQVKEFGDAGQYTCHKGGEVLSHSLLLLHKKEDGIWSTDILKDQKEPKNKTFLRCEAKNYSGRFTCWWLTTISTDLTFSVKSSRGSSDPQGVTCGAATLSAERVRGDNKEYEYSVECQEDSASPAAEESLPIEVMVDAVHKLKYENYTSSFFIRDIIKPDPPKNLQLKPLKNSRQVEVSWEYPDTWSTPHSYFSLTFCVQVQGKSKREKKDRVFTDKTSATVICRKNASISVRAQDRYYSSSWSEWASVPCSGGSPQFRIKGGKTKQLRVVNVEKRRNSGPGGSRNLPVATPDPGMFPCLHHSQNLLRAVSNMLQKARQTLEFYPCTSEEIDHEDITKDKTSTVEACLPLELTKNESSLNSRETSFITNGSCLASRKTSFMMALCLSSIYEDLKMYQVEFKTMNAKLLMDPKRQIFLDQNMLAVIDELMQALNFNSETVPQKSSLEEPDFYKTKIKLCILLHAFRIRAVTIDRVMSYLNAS

A further data set deals with T4, Destabilized IL-12 #21.
T4 chain: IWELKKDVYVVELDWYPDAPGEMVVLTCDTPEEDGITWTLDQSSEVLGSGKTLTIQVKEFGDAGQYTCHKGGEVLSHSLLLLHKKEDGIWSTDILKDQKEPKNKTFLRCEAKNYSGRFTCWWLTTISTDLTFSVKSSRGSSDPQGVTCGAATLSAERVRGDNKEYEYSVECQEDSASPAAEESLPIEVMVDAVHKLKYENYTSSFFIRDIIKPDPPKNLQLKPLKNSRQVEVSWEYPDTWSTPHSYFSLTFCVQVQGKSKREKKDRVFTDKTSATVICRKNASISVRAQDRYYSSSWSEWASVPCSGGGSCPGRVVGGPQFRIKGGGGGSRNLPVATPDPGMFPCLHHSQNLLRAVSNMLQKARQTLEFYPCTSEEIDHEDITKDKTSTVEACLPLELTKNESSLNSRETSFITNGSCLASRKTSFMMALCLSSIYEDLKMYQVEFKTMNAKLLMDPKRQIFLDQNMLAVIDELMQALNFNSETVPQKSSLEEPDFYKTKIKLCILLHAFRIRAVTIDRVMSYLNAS

In a further data set the target is T5, Destabilized IL-12 #27.
T5 chain: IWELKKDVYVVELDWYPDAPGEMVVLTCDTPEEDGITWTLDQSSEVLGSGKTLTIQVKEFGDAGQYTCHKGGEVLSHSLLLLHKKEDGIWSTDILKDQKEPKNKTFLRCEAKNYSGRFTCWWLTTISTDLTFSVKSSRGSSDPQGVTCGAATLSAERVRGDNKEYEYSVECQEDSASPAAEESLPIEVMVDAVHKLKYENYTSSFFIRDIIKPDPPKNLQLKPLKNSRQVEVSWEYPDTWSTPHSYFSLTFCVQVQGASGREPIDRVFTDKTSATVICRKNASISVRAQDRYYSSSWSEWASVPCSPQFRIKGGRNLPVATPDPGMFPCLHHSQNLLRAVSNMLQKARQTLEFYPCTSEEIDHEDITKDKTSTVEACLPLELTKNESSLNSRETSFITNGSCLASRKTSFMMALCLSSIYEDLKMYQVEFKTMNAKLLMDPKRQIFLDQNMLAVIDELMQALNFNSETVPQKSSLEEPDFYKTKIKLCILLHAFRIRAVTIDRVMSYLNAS

Chain of Destabilized IL-12 #4 (chain, as listed by the source): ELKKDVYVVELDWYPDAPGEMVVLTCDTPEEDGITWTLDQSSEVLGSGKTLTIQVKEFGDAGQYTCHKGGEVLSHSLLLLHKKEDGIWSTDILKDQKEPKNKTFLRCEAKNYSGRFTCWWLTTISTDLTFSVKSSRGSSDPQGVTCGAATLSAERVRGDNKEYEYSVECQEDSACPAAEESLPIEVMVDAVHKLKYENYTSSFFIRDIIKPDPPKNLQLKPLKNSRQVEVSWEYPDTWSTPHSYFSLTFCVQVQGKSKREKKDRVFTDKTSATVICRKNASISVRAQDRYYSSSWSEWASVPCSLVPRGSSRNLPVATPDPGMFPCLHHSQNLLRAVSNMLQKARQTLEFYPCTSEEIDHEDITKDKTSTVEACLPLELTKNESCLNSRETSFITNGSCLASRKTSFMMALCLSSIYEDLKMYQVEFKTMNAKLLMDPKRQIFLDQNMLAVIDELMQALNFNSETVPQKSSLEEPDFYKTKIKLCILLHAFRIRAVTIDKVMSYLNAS

As for thrombin, in the data set on Destabilized IL-12 #2 [1], the “fold reduction in biological activity (NK-92 assay) after thrombin digestion, against wild-type single chain IL-12” value (from here on “fold reduction in biological activity”) was “(~11 fold decrease*)”; the “thrombin cleavage (67 U/mL, 20 hours, 37 degrees C), anti-p35 immunoblot, reducing conditions” value was “Under reducing conditions, thrombin cleavage of all three IL-12 mutants was detected”; the “thrombin cleavage (67 U/mL, 20 hours, 37 degrees C), anti-p40 immunoblot, reducing conditions” value is reported as “Under reducing conditions, thrombin cleavage of all three IL-12 mutants was detected”. Further, in the data set on Destabilized IL-12 #4, the “fold reduction in biological activity” value is recorded as “(~1.5 fold decrease*)”; the “thrombin cleavage (67 U/mL, 20 hours, 37 degrees C), anti-p35 immunoblot, non-reducing conditions” value is reported as “under non-reducing conditions, thrombin cleavage of Destabilized #4 was not detected”; the “thrombin cleavage (67 U/mL, 20 hours, 37 degrees C), anti-p35 immunoblot, reducing conditions” value is reported as “Under reducing conditions, thrombin cleavage of all three IL-12 mutants was detected”; the “thrombin cleavage (67 U/mL, 20 hours, 37 degrees C), anti-p40 immunoblot, non-reducing conditions” value was “under non-reducing conditions, thrombin cleavage of Destabilized #4 was not detected”. The “thrombin cleavage (67 U/mL, 20 hours, 37 degrees C), anti-p40 immunoblot, reducing conditions” value in the data set with Destabilized IL-12 #4 is recorded as “Under reducing conditions, thrombin cleavage of all three IL-12 mutants was detected”. Also, in the data set with Destabilized IL-12 #5 [2], the “fold reduction in biological activity” value is “(~9 fold decrease*)”; the “thrombin cleavage (67 U/mL, 20 hours, 37 degrees C), anti-p35 immunoblot, reducing conditions” value is “Under reducing conditions, thrombin cleavage of all three IL-12 mutants was detected”; the “thrombin cleavage (67 U/mL, 20 hours, 37 degrees C), anti-p40 immunoblot, reducing conditions” value is “Under reducing conditions, thrombin cleavage of all three IL-12 mutants was detected”.
thrombin (enzyme): the thrombin dose needed to reduce IFNg secretion of NK-92 cells (HTRF) with Destabilized IL-12 #2 [3] and with Destabilized IL-12 #5 [4] was 10 U/mL each time.

B1: human Plasmin (23.3 Units/mg; Millipore) (protein)
chain: KVYLSECKTGNGKNYRGTMSKTKNGITCQKWSSTSPHRPRFSPATHPSEGLEENYCRNPDNDPQGPWCYTTDPEKRYDYCDILECEEECMHCSGENYDGKISKTMSGLECQAWDSQSPHAHGYIPSKFPNKNLKKNYCRNPDRELRPWCFTTDPNKRWELCDIPRCTTPPPSSGPTYQCLKGTGENYRGNVAVTVSGHTCQHWSAQTPHTHNRTPENFPCKNLDENYCRNPDGKRAPWCHTTNSQVRWEYCKIPSCDSSPVSTEQLAPTAPPELTPVVQDCYHGDGQSYRGTSSTTTTGKKCQSWSSMTPHRHQKTPENYPNAGLTMNYCRNPDADKGPWCFTTDPSVRWEYCNLKKCSGTEASVVAPPPVVLLPDVETPSEEDCMFGNGKGYRGKRATTVTGTPCQDWAAQEPHRHSIFTPETNPRAGLEKNYCRNPDGDVGGPWCYTTNPRKLYDYCDVPQCAAPSFDCGKPQVEPKKCPGRVVGGCVAHPHSWPWQVSLRTRFGMHFCGGTLISPEWVLTAAHCLEKSPRPSSYKVILGAHQEVNLEPHVQEIEVSRLFLEPTRKDIALLKLSSPAVITDKVIPACLPSPNYVVADRTECFITGWGETQGTFGAGLLKEAQLPVIENKVCNRYEFLNGRVQSTELCAGHLAGGTDSCQGDSGGPLVCFEKDKYILQGVTSWGLGCARPNKPGVYVRVSRFVTWIEGVMRNN
On to B1, for which the “proteolytic digestion, 1 hour, reducing SDS-PAGE and anti-p40 Western blot” value is “Partial digestion of DSIL-12#11, DSIL-12#12, DSIL-12#21 and DSIL-12#18 was detected with as little as 0.05 mU of plasmin” with Destabilized IL-12 #11; “Partial digestion of DSIL-12#11, DSIL-12#12, DSIL-12#21 and DSIL-12#18 was detected with as little as 0.05 mU of plasmin” with Destabilized IL-12 #12; “Partial digestion of DSIL-12#11, DSIL-12#12, DSIL-12#21 and DSIL-12#18 was detected with as little as 0.05 mU of plasmin” with Destabilized IL-12 #18; “Partial digestion of DSIL-12#11, DSIL-12#12, DSIL-12#21 and DSIL-12#18 was detected with as little as 0.05 mU of plasmin” in the data set with Destabilized IL-12 #21; 2.5 mU of plasmin were required for partial digestion of DSIL-12#27 in the data set with Destabilized IL-12 #27.
